This note sets out measurements from article PMC9708728.

As usually defined, the stoichiometry N is a count of units in the complex or per binding partner.

The test has as its target SARS-CoV-2 RBD (R319-F541) with a C-terminal His tag (SARS-CoV-2) (UniProt P0DTC2). As to the kind of experiment: SEC + other: non-reducing SDS-PAGE.

In the case of “SARS-CoV-2 RBD (R319-F541) with a C-terminal His tag (from UniProt P0DTC2 319-541) (domain or fragment)”, the percent dimer is 30% and the stoichiometry N came to 2.
